The target of the assay is recombinant importin α2-His (Laodelphax striatellus). As to the kind of experiment: MST.

In the case of NP-GST (natural protein), the Kd worked out at 9.1 µM.

These data come from publication PMC8325321.
